Sequences and labels used below:
B1: POU domain, class 4, transcription factor 1, residues 266 to 347; numbered along this chain, Q01851 (parent)
chain: RELEAFAERFKQRRIKLGVTQADVGSALANLKIPGVGSLSQSTICRFESLTLSHNNMIALKPILQAWLEEAEGAQREKMNKP

± gives the uncertainty stated by the source.

Variants of B1 are the subject of the data set. In words: abundance fitness (aPCA) (normalised: wild type 0, dead -1); higher = more abundant; growth selection in yeast, the domain comes from the species named. To be noted: Homo sapiens.
For RELEAFAERFKQRRIKLGVTQADVGSALANLKIPGVMSLSQSTICRFESLTLSHNNMIALKPILQAWLEEAEGAQREKMNKP, the abundance fitness was -0.134 ± 0.037.

For RELEAFAERFKQRRIKLGVTQADVGSALANLKIPGVWSLSQSTICRFESLTLSHNNMIALKPILQAWLEEAEGAQREKMNKP, the abundance fitness is -0.328 ± 0.036. For RELEAFAERFKQRRIKLGVTQADVGSALANLKIPGVPSLSQSTICRFESLTLSHNNMIALKPILQAWLEEAEGAQREKMNKP the value was -0.016 ± 0.04; for RELEAFAERFKQRRIKLGVTQADVGSALANLKIPGVRSLSQSTICRFESLTLSHNNMIALKPILQAWLEEAEGAQREKMNKP, -0.115 ± 0.025.

In the case of RELEAFAERFKQRRIKLGVTQADVGSALANLKIPGVDSLSQSTICRFESLTLSHNNMIALKPILQAWLEEAEGAQREKMNKP, the abundance fitness is -0.092 ± 0.052. In the case of RELEAFAERFKQRRIKLGVTQADVGSALANLKIPGVCSLSQSTICRFESLTLSHNNMIALKPILQAWLEEAEGAQREKMNKP, the abundance fitness is -0.058 ± 0.047.

As to RELEAFAERFKQRRIKLGVTQADVGSALANLKIPGVVSLSQSTICRFESLTLSHNNMIALKPILQAWLEEAEGAQREKMNKP, the abundance fitness was -0.093 ± 0.028.

Turning to RELEAFAERFKQRRIKLGVTQADVGSALANLKIPGVTSLSQSTICRFESLTLSHNNMIALKPILQAWLEEAEGAQREKMNKP, the abundance fitness is -0.076 ± 0.039. For RELEAFAERFKQRRIKLGVTQADVGSALANLKIPGVHSLSQSTICRFESLTLSHNNMIALKPILQAWLEEAEGAQREKMNKP the value was -0.05 ± 0.066; for RELEAFAERFKQRRIKLGVTQADVGSALANLKIPGVKSLSQSTICRFESLTLSHNNMIALKPILQAWLEEAEGAQREKMNKP, -0.074 ± 0.041.

Regarding RELEAFAERFKQRRIKLGVTQADVGSALANLKIPGVASLSQSTICRFESLTLSHNNMIALKPILQAWLEEAEGAQREKMNKP, the abundance fitness was -0.045 ± 0.028. For RELEAFAERFKQRRIKLGVTQADVGSALANLKIPGVFSLSQSTICRFESLTLSHNNMIALKPILQAWLEEAEGAQREKMNKP the value was -0.149 ± 0.045; for RELEAFAERFKQRRIKLGVTQADVGSALANLKIPGVQSLSQSTICRFESLTLSHNNMIALKPILQAWLEEAEGAQREKMNKP, -0.121 ± 0.042; for RELEAFAERFKQRRIKLGVTQADVGSALANLKIPGVESLSQSTICRFESLTLSHNNMIALKPILQAWLEEAEGAQREKMNKP, 0.015 ± 0.032.

In the case of RELEAFAERFKQRRIKLGVTQADVGSALANLKIPGVLSLSQSTICRFESLTLSHNNMIALKPILQAWLEEAEGAQREKMNKP, the abundance fitness was -0.121 ± 0.03.

With RELEAFAERFKQRRIKLGVTQADVGSALANLKIPGVISLSQSTICRFESLTLSHNNMIALKPILQAWLEEAEGAQREKMNKP, the abundance fitness is -0.116 ± 0.063. Then RELEAFAERFKQRRIKLGVTQADVGSALANLKIPGVNSLSQSTICRFESLTLSHNNMIALKPILQAWLEEAEGAQREKMNKP, with 0.035 ± 0.079; and RELEAFAERFKQRRIKLGVTQADVGSALANLKIPGVSSLSQSTICRFESLTLSHNNMIALKPILQAWLEEAEGAQREKMNKP, with -0.047 ± 0.032.

Consider RELEAFAERFKQRRIKLGVTQADVGSALANLKIPGVYSLSQSTICRFESLTLSHNNMIALKPILQAWLEEAEGAQREKMNKP, for which the abundance fitness is -0.054 ± 0.053.

Take RELEAFAERFKQRRIKLGVTQADVGSALANLKIPLVGSLSQSTICRFESLTLSHNNMIALKPILQAWLEEAEGAQREKMNKP: the abundance fitness is -0.303 ± 0.19.

RELEAFAERFKQRRIKLGVTQADVGSALANLKIPWVGSLSQSTICRFESLTLSHNNMIALKPILQAWLEEAEGAQREKMNKP: the abundance fitness is -0.326 ± 0.28. RELEAFAERFKQRRIKLGVTQADVGSALANLKIPTVGSLSQSTICRFESLTLSHNNMIALKPILQAWLEEAEGAQREKMNKP: the abundance fitness turned out to be 0.07 ± 0.19. Then RELEAFAERFKQRRIKLGVTQADVGSALANLKIPSVGSLSQSTICRFESLTLSHNNMIALKPILQAWLEEAEGAQREKMNKP, with -0.29 ± 0.23. Then RELEAFAERFKQRRIKLGVTQADVGSALANLKIPRVGSLSQSTICRFESLTLSHNNMIALKPILQAWLEEAEGAQREKMNKP, with -0.056 ± 0.12; and RELEAFAERFKQRRIKLGVTQADVGSALANLKIPMVGSLSQSTICRFESLTLSHNNMIALKPILQAWLEEAEGAQREKMNKP, with -0.175 ± 0.22; and RELEAFAERFKQRRIKLGVTQADVGSALANLKIPGVGSLCQSTICRFESLTLSHNNMIALKPILQAWLEEAEGAQREKMNKP, with -0.017 ± 0.057.

With RELEAFAERFKQRRIKLGVTQADVGSALANLKIPGVGSLAQSTICRFESLTLSHNNMIALKPILQAWLEEAEGAQREKMNKP, the abundance fitness is -0.129 ± 0.053. Then RELEAFAERFKQRRIKLGVTQADVGSALANLKIPGVGSKSQSTICRFESLTLSHNNMIALKPILQAWLEEAEGAQREKMNKP, with -0.409 ± 0.08; and RELEAFAERFKQRRIKLGVTQADVGSALANLKIPGVGSQSQSTICRFESLTLSHNNMIALKPILQAWLEEAEGAQREKMNKP, with -0.368 ± 0.085. Then RELEAFAERFKQRRIKLGVTQADVGSALANLKIPGVGSYSQSTICRFESLTLSHNNMIALKPILQAWLEEAEGAQREKMNKP, with -0.277 ± 0.11. For RELEAFAERFKQRRIKLGVTQADVGSALANLKIPGVGSWSQSTICRFESLTLSHNNMIALKPILQAWLEEAEGAQREKMNKP the value was -0.169 ± 0.046; for RELEAFAERFKQRRIKLGVTQADVGSALANLKIPGVGSFSQSTICRFESLTLSHNNMIALKPILQAWLEEAEGAQREKMNKP, -0.211 ± 0.16; for RELEAFAERFKQRRIKLGVTQADVGSALANLKIPGVGSPSQSTICRFESLTLSHNNMIALKPILQAWLEEAEGAQREKMNKP, -0.03 ± 0.072. RELEAFAERFKQRRIKLGVTQADVGSALANLKIPGVGSTSQSTICRFESLTLSHNNMIALKPILQAWLEEAEGAQREKMNKP: the abundance fitness is -0.138 ± 0.085. For RELEAFAERFKQRRIKLGVTQADVGSALANLKIPGVGSHSQSTICRFESLTLSHNNMIALKPILQAWLEEAEGAQREKMNKP the value was -0.113 ± 0.26. With RELEAFAERFKQRRIKLGVTQADVGSALANLKIPGVGSISQSTICRFESLTLSHNNMIALKPILQAWLEEAEGAQREKMNKP, the abundance fitness came to 0.042 ± 0.13.

With RELEAFAERFKQRRIKLGVTQADVGSALANLKIPGVGSSSQSTICRFESLTLSHNNMIALKPILQAWLEEAEGAQREKMNKP, the abundance fitness was -0.33 ± 0.064.

With RELEAFAERFKQRRIKLGVTQADVGSALANLKIPGVGSMSQSTICRFESLTLSHNNMIALKPILQAWLEEAEGAQREKMNKP, the abundance fitness was determined as 0.01 ± 0.059. For RELEAFAERFKQRRIKLGVTQADVGSALANLKIPGVGSVSQSTICRFESLTLSHNNMIALKPILQAWLEEAEGAQREKMNKP the value was 0.001 ± 0.037; for RELEAFAERFKQRRIKLGVTQADVGSALANLKIPGVGSCSQSTICRFESLTLSHNNMIALKPILQAWLEEAEGAQREKMNKP, -0.096 ± 0.071; for RELEAFAERFKQRRIKLGVTQADVGSALANLKIPGVGSRSQSTICRFESLTLSHNNMIALKPILQAWLEEAEGAQREKMNKP, -0.487 ± 0.044. For RELEAFAERFKQRRIKLGVTQADVGSALANLKIPGVGSDSQSTICRFESLTLSHNNMIALKPILQAWLEEAEGAQREKMNKP the value was -0.231 ± 0.09; for RELEAFAERFKQRRIKLGVTQADVGSALANLKIPGVGELSQSTICRFESLTLSHNNMIALKPILQAWLEEAEGAQREKMNKP, 0.016 ± 0.083; for RELEAFAERFKQRRIKLGVTQADVGSALANLKIPGVGGLSQSTICRFESLTLSHNNMIALKPILQAWLEEAEGAQREKMNKP, -0.203 ± 0.13. Then RELEAFAERFKQRRIKLGVTQADVGSALANLKIPGVGVLSQSTICRFESLTLSHNNMIALKPILQAWLEEAEGAQREKMNKP, with 0.05 ± 0.2; and RELEAFAERFKQRRIKLGVTQADVGSALANLKIPGVGFLSQSTICRFESLTLSHNNMIALKPILQAWLEEAEGAQREKMNKP, with 0.147 ± 0.18; and RELEAFAERFKQRRIKLGVTQADVGSALANLKIPGVGCLSQSTICRFESLTLSHNNMIALKPILQAWLEEAEGAQREKMNKP, with -0.222 ± 0.16.

Regarding RELEAFAERFKQRRIKLGVTQADVGSALANLKIPGVGHLSQSTICRFESLTLSHNNMIALKPILQAWLEEAEGAQREKMNKP, the abundance fitness worked out at 0.047 ± 0.38.

Consider RELEAFAERFKQRRIKLGVTQADVGSALANLKIPGVGLLSQSTICRFESLTLSHNNMIALKPILQAWLEEAEGAQREKMNKP, for which the abundance fitness is -0.11 ± 0.11. For RELEAFAERFKQRRIKLGVTQADVGSALANLKIPGVGALSQSTICRFESLTLSHNNMIALKPILQAWLEEAEGAQREKMNKP the value was -0.18 ± 0.27; for RELEAFAERFKQRRIKLGVTQADVGSALANLKIPGVGWLSQSTICRFESLTLSHNNMIALKPILQAWLEEAEGAQREKMNKP, -0.095 ± 0.14; for RELEAFAERFKQRRIKLGVTQADVGSALANLKIPGVGPLSQSTICRFESLTLSHNNMIALKPILQAWLEEAEGAQREKMNKP, -0.112 ± 0.14. Then RELEAFAERFKQRRIKLGVTQADVGSALANLKIPGVGRLSQSTICRFESLTLSHNNMIALKPILQAWLEEAEGAQREKMNKP, with 0.048 ± 0.096. Then RELEAFAERFKQRRIKLGVTQADVGSALANLKIPGYGSLSQSTICRFESLTLSHNNMIALKPILQAWLEEAEGAQREKMNKP, with -0.257 ± 0.38; and RELEAFAERFKQRRIKLGVTQADVGSALANLKIPGDGSLSQSTICRFESLTLSHNNMIALKPILQAWLEEAEGAQREKMNKP, with -0.463 ± 0.42; and RELEAFAERFKQRRIKLGVTQADVGSALANLKIPGLGSLSQSTICRFESLTLSHNNMIALKPILQAWLEEAEGAQREKMNKP, with 0.003 ± 0.12. For the variant RELEAFAERFKQRRIKLGVTQADVGSALANLKIPGSGSLSQSTICRFESLTLSHNNMIALKPILQAWLEEAEGAQREKMNKP, the abundance fitness is -0.096 ± 0.24. Regarding RELEAFAERFKQRRIKLGVTQADVGSALANLKIPGNGSLSQSTICRFESLTLSHNNMIALKPILQAWLEEAEGAQREKMNKP, the abundance fitness is -0.327 ± 0.19. For RELEAFAERFKQRRIKLGVTQADVGSALANLKIPGKGSLSQSTICRFESLTLSHNNMIALKPILQAWLEEAEGAQREKMNKP the value was -0.138 ± 0.14; for RELEAFAERFKQRRIKLGVTQADVGSALANLKIPGTGSLSQSTICRFESLTLSHNNMIALKPILQAWLEEAEGAQREKMNKP, 0.24 ± 0.15.

Regarding RELEAFAERFKQRRIKLGVTQADVGSALANLKIPGEGSLSQSTICRFESLTLSHNNMIALKPILQAWLEEAEGAQREKMNKP, the abundance fitness is -0.125 ± 0.086. Take RELEAFAERFKQRRIKLGVTQADVGSALANLKIPGRGSLSQSTICRFESLTLSHNNMIALKPILQAWLEEAEGAQREKMNKP: the abundance fitness is -0.214 ± 0.062. In the case of RELEAFAERFKQRRIKLGVTQADVGSALANLKIPGCGSLSQSTICRFESLTLSHNNMIALKPILQAWLEEAEGAQREKMNKP, the abundance fitness is -0.225 ± 0.18. As for RELEAFAERFKQRRIKLGVTQADVGSALANLKIPGGGSLSQSTICRFESLTLSHNNMIALKPILQAWLEEAEGAQREKMNKP, the abundance fitness is -0.142 ± 0.11.

RELEAFAERFKQRRIKLGVTQADVGSALANLKIPGQGSLSQSTICRFESLTLSHNNMIALKPILQAWLEEAEGAQREKMNKP: the abundance fitness was -0.252 ± 0.17. Then RELEAFAERFKQRRIKLGVTQADVGSALANLKIPGIGSLSQSTICRFESLTLSHNNMIALKPILQAWLEEAEGAQREKMNKP, with 0.013 ± 0.13; and RELEAFAERFKQRRIKLGVTQADVGSALANLKIPGMGSLSQSTICRFESLTLSHNNMIALKPILQAWLEEAEGAQREKMNKP, with -0.189 ± 0.22.

Source of the values: the Human Domainome abundance scans (Beltran et al. 2025).
